Results on three sequences are retold here after the supplement of paper PMC6379048.

Holding throughout (experiment): Kd (EC50 corrected by depletion factor)
The target in series [1] is P4HA1 (UniProt P13674). The method in brief: (§1)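 HEK293-FT lysate (2.5 mg protein/well) was pre-incubated 1 h at 4°C with free RNA oligos (0 nM to 30 μM), then 30 min at 4°C with the same 5′-amino-C6 oligos coupled to NHS-Sepharose beads. Bound proteins were quantified by label-free LC-MS/MS in three biological replicates and two independent experiments, and normalised to the water control. EC50 came from a four-parameter log-logistic fit; Kd is EC50 times a protein-dependent depletion factor.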

For series [2], the target named is T1, AASS (UniProt Q9UDR5).
T1 sequence: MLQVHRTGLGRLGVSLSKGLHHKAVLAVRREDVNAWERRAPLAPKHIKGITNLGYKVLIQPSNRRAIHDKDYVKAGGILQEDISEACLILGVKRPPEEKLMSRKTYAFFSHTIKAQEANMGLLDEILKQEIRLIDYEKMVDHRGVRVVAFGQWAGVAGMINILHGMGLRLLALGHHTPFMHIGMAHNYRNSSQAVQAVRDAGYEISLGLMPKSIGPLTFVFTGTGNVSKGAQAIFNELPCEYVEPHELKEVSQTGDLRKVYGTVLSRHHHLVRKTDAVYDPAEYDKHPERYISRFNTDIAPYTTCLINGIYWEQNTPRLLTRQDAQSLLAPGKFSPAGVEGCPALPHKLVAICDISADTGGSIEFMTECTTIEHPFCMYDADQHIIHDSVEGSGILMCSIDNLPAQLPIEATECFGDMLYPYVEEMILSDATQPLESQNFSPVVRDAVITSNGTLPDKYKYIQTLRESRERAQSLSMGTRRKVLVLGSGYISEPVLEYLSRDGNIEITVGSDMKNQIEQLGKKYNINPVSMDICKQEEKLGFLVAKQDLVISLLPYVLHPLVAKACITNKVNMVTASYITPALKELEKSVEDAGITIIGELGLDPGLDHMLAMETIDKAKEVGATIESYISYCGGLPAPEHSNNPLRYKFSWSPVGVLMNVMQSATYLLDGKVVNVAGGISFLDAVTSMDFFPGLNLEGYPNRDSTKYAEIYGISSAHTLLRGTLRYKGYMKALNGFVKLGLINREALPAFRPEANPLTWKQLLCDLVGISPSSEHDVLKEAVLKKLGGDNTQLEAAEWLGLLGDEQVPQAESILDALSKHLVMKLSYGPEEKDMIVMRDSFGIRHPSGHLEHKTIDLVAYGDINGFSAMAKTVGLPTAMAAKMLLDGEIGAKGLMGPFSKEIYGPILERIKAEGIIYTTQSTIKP
Put shortly: as §1

For series [3], the target named is HNRNPK (UniProt P61978). The method in brief: as §1
The target in series [4] is T2, DHX30 (UniProt Q7L2E3).
T2 sequence: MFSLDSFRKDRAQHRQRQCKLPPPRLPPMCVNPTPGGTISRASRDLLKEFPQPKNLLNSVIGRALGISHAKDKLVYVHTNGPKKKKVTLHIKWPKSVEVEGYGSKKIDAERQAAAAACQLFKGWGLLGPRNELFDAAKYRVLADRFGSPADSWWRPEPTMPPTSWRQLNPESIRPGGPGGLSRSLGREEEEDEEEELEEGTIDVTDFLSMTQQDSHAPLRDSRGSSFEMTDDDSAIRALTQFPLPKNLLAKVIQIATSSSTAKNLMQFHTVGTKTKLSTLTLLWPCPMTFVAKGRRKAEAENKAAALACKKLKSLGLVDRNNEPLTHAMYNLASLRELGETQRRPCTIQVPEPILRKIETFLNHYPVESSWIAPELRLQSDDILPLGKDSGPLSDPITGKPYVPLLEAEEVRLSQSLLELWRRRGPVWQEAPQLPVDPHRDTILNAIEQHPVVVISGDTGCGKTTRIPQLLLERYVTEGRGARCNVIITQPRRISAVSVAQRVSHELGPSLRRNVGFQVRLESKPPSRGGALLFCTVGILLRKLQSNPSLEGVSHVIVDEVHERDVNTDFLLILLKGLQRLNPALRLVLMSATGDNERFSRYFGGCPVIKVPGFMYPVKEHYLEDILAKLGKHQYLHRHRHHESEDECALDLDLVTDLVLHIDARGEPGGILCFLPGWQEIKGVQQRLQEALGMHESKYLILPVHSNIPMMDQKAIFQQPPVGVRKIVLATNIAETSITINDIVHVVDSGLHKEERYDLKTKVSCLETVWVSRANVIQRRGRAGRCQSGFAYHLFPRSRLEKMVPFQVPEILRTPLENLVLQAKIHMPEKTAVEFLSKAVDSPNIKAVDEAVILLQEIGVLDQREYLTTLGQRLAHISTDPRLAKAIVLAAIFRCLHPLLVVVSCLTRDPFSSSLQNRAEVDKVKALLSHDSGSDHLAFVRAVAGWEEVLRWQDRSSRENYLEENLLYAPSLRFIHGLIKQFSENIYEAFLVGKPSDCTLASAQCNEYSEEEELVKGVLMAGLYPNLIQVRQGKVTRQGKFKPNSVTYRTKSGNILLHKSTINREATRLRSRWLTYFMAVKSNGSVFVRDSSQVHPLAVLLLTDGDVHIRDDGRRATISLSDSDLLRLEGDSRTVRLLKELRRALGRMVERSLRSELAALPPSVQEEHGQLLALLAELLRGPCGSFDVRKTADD
The method in brief: as §1

Series [5] has as its target T3, GRSF1 (UniProt Q12849).
T3 sequence: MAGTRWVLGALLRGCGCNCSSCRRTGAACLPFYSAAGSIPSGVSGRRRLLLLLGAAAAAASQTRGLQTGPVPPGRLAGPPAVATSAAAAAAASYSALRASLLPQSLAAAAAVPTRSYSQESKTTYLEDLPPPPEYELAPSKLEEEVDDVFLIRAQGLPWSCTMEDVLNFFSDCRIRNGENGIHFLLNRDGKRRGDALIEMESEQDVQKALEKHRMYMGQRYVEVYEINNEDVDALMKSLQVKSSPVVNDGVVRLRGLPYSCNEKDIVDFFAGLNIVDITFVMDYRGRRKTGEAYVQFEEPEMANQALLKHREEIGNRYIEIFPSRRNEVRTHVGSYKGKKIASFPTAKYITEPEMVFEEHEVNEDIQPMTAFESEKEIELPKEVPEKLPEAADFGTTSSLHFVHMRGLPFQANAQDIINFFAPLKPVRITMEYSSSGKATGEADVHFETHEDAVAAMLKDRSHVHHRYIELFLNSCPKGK
Put shortly: as §1

Sequence of P4HA1 (P13674 whole entry): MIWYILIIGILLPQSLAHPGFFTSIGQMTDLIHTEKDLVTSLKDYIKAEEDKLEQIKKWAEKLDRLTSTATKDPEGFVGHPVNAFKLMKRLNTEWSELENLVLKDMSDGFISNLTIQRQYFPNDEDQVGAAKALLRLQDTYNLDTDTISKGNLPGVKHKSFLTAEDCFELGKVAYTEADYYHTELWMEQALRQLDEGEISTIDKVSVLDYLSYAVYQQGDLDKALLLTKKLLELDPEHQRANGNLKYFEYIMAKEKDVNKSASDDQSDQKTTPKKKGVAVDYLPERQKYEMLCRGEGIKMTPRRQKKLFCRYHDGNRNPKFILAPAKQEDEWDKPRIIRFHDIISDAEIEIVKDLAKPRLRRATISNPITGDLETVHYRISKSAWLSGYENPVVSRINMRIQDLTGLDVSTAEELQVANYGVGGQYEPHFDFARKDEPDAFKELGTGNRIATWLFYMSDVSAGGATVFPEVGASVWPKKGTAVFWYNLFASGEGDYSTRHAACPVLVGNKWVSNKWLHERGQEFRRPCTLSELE

Consider AAUAAA, for which the Kd in series [1] came out at 23.8 nM; in series [2] it was 1220 nM. On to CUGUCCU, for which the values for the Kd in series [3] and in series [4] were 1630 nM and 58.7 nM, respectively. UAUUUAU yielded a Kd in series [5] of 3420 nM.

The term Kd denotes the free concentration of one partner at which half of the binding sites on the other are occupied at equilibrium, for simple one-to-one binding. Higher therefore signals weaker binding.
